{
  "source": "paper PMC11426443",
  "about": "“Signal-sensing triggers the shutdown of HemKR, regulating heme and iron metabolism in the spirochete Leptospira biflexa” (PLOS ONE, 2024)",
  "key": {"[1]": {"target": "T1, HemKΔ80 (Leptospira biflexa, UniProt A5JUR4)", "T1 construct": "gene LEPBI_I1423; soluble cytoplasmic catalytic region lacking first 80 residues (periplasmic and transmembrane); N-terminal His-tag cut by TEV; E. coli Rosetta-gami(DE3)", "T1 sequence (A5JUR4 81-295)": "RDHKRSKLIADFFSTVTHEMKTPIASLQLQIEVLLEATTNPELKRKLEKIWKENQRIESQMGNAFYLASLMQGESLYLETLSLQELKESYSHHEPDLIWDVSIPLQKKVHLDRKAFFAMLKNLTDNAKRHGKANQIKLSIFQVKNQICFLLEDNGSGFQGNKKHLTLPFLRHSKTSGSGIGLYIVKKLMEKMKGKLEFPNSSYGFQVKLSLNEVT", "experiment": "autophosphorylation, PhosTag-SDS-PAGE", "format": "biochemical", "conditions": "5 mM ATP, 10 mM MgCl2; phosphoryl transfer to HemK H98"}, "[2]": {"target": "phosphorylated HemRREC (receiver domain of HemR, phosphorylated) (Leptospira biflexa)", "experiment": "SEC; 600 uM HemRREC or HemRFL incubated with 5 mM acetyl phosphate, 10 mM MgCl2; dimeric phosphorylated form separated from monomeric non-phosphorylated form on Superdex 10/300 75 prep"}, "[3]": {"target": "phosphorylated HemRFL (full-length HemR, phosphorylated) (Leptospira biflexa)", "experiment": "SEC; 600 uM HemRREC or HemRFL incubated with 5 mM acetyl phosphate, 10 mM MgCl2; dimeric phosphorylated form separated from monomeric non-phosphorylated form on Superdex 10/300 75 prep"}},
  "data": [
    {"molecule": "Nc1ncnc2c1ncn2[C@@H]1O[C@H](COP(=O)(O)OP(=O)(O)OP(=O)(O)O)[C@@H](O)[C@H]1O", "note": "[ATP]", "values": [
      {"measurement": "autophosphorylation, PhosTag-SDS-PAGE", "setting": "[1]", "value": "possesses ATP-dependent autokinase activity (Fig 1A)"}
    ]},
    {"molecule": "phosphorylated HemRREC (receiver domain of HemR, phosphorylated) (domain or fragment)", "values": [
      {"measurement": "stoichiometry N", "setting": "[2]", "value": 2}
    ]},
    {"molecule": "phosphorylated HemRFL (full-length HemR, phosphorylated) (natural protein)", "values": [
      {"measurement": "stoichiometry N", "setting": "[3]", "value": 2}
    ]}
  ]
}
